The values below are quoted from earlier work in publication PMC6021539.

The data set has as its target Adrenomedullin (Homo sapiens) (UniProt P35318).

The term Kd denotes a measure of binding affinity in units of concentration. With CXCR7 (from UniProt P25106), the Kd is 0.19 µM.
